Test results as given in article PMC7128310, “Negative Regulation of TLR Signaling by BCAP Requires Dimerization of Its DBB Domain” (The Journal of Immunology Author Choice, 2020).

Molecular target: the molecule itself
Experiment: SEC-MALS; 50 μl at 2 mg/ml on Superdex 200 Increase 10/300 GL

B1: BCAP DBB-ANK (residues 179-404) (domain or fragment, human, UniProt Q6ZUJ8 179-404, looked up)
chain: MVVQPDRIRCGAETTVYVIVRCKLDDRVATEAEFSPEDSPSVRMEAKVENEYTISVKAPNLSSGNVSLKIYSGDLVVCETVISYYTDMEEIGNLLSNAANPVEFMCQAFKIVPYNTETLDKLLTESLKNNIPASGLHLFGINQLEEEDMMTNQRDEELPTLLHFAAKYGLKNLTALLLTCPGALQAYSVANKHGHYPNTIAEKHGFRDLRQFIDEYVETVDMLKSH
notes: B cell adaptor protein (BCAP), human, DBB and ANK domains, residues 179-404; Cloned into pMCSG7 or pMCSG9; source: E. coli BL21(DE3), purified (Ni-NTA, TEV, Superdex 200)
With B1 the “stoichiometry N” value was 2.
